Experiments:
[1] = molecular target: the molecule itself; experiment: SEC; MASP-3 SP and ecotin preincubated 20 min at room temperature (equimolar, 225 pmol; also various molar ratios), TSK G3000 SW column in 145 mM NaCl, 50 mM triethanolamine-HCl, pH 7.4, 1 ml/min; peaks analysed by N-terminal sequencing and SDS-PAGE
[2] = molecular target: T1, MASP-3 serine protease (SP) domain (human, UniProt P48740-2 450-728, three N-linked oligosaccharide chains comprising two N-acetylglucosamine and five mannose residues); experiment: cell-based or functional assay
T1 sequence (looked up): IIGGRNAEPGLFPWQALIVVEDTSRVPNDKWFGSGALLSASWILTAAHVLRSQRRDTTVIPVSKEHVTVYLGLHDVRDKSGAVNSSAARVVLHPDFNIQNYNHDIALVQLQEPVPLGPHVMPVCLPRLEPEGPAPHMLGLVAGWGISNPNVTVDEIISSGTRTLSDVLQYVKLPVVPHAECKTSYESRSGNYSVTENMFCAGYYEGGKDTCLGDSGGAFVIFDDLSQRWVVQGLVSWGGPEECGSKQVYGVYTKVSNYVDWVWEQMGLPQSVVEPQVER

[3] = molecular target: T2, Coagulation factor XIa (human plasma) (human, UniProt P03951 19-387; P03951 388-625); experiment: SPR; ecotin (1,000 RU) amine-coupled on a CM5 chip; proteases injected at 20 µl/min in 145 mM NaCl, 50 mM triethanolamine-HCl, pH 7.4, 0.005% surfactant P20; global fit to a 1:1 Langmuir model, at least five concentrations; apparent KD = kd/ka; details: both partners purified
T2 construct: coagulation factor XIa heavy chain, human plasma; coagulation factor XIa light chain (catalytic domain), human plasma; also called fXIa; source: bought: Calbiochem (human plasma)
T2 sequence (P03951 19-387, chain 1 of 2): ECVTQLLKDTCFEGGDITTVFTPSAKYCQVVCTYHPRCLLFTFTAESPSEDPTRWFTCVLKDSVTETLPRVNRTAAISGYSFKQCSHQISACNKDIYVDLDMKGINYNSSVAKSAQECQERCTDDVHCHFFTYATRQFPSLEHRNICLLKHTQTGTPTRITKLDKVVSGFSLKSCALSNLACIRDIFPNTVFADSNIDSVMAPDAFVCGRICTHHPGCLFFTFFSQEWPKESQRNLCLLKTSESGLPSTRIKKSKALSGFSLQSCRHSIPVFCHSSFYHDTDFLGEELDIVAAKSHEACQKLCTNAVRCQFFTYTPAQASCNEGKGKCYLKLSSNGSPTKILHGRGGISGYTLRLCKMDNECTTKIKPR
T2 sequence (P03951 388-625, chain 2 of 2): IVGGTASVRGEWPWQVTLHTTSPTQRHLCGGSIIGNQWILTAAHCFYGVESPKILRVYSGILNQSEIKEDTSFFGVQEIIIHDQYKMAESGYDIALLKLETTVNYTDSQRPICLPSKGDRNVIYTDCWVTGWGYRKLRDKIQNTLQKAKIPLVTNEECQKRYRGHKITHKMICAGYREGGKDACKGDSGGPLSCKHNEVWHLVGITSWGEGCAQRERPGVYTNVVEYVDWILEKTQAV

[4] = molecular target: T3, MASP-2 CCP1/2-ap-SP fragment (human, UniProt O00187 298-686); experiment: as above; details: both partners purified
T3 construct: also called CCP1/2-ap-SP fragment of MASP-2; catalytic domain of MASP-2; source: baculovirus-infected insect cells, purified
T3 sequence (O00187 298-686): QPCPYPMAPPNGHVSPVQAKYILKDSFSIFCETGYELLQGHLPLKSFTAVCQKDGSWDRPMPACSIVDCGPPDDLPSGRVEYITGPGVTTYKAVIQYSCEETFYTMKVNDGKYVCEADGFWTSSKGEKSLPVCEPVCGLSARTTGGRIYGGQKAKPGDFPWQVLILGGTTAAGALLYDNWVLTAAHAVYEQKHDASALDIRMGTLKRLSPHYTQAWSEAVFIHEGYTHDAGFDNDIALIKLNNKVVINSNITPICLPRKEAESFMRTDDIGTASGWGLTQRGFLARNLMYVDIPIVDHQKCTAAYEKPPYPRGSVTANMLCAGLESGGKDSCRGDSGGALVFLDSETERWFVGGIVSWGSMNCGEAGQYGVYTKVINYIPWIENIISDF

[5] = molecular target: T1, MASP-3 serine protease (SP) domain; experiment: as above; details: both partners purified

B1: Ecotin (E. coli pan-serine protease inhibitor) (natural protein)
chain: not shown
notes: residues numbered 1 onwards in the structure (P1 residue Met84); Homodimer (molecular mass 32 kDa as printed); also called ecotin dimer; source: bought: Gentaur Molecular Products
Question: Which “stoichiometry N” value [1] does the source give for B1 here?
Answer: The value was 2.

Question: And the “inhibition of FGR-AMC cleavage by the MASP-3 SP domain after incubation with ecotin at a 1:1 molar ratio” value [2]?
Answer: Its value is 82%.

Question: What about the Kd [3] of the same binder?
Answer: The Kd was 1.38 nM.

Question: What about the koff [3] of the same binder?
Answer: The koff was 0.000169 s⁻¹.

Question: What about the kon [3] of the same binder?
Answer: Its kon is 123000 M⁻¹ s⁻¹.

Question: And the Kd [4]?
Answer: The Kd was 24.7 nM.

Question: And the koff [4]?
Answer: Its koff is 0.00228 s⁻¹.

Question: What about the kon [4] of the same binder?
Answer: The kon was 104000 M⁻¹ s⁻¹.

Question: What about the Kd [5] of the same binder?
Answer: Its Kd is 601 nM.

Question: And the koff [5]?
Answer: The koff was 0.000806 s⁻¹.

Question: And the kon [5]?
Answer: Its kon is 1340 M⁻¹ s⁻¹.

Reference: article PMC3701661, “The Serine Protease Domain of MASP-3: Enzymatic Properties and Crystal Structure in Complex with Ecotin” (PLoS ONE, 2013)
